{"source": "IntAct's records for PubMed 26385923", "parents": {"B1": {"name": "Mitochondrial antiviral-signaling protein (Homo sapiens), Q7Z434 (parent)", "chain": "MPFAEDKTYKYICRNFSNFCNVDVVEILPYLPCLTARDQDRLRATCTLSGNRDTLWHLFNTLQRRPGWVEYFIAALRGCELVDLADEVASVYQSYQPRTSDRPPDPLEPPSLPAERPGPPTPAAAHSIPYNSCREKEPSYPMPVQETQAPESPGENSEQALQTLSPRAIPRNPDGGPLESSSDLAALSPLTSSGHQEQDTELGSTHTAGATSSLTPSRGPVSPSVSFQPLARSTPRASRLPGPTGSVVSTGTSFSSSSPGLASAGAAEGKQGAESDQAEPIICSSGAEAPANSLPSKVPTTLMPVNTVALKVPANPASVSTVPSKLPTSSKPPGAVPSNALTNPAPSKLPINSTRAGMVPSKVPTSMVLTKVSASTVPTDGSSRNEETPAAPTPAGATGGSSAWLDSSSENRGLGSELSKPGVLASQVDSPFSGCFEDLAISASTSLGMGPCHGPEENEYKSEGTFGIHVAENPSIQLLEGNPGPPADPDGGPRPQADRKFQEREVPCHRPSPGALWLQVAVTGVLVVTLLVVLYRRRLH", "partner": "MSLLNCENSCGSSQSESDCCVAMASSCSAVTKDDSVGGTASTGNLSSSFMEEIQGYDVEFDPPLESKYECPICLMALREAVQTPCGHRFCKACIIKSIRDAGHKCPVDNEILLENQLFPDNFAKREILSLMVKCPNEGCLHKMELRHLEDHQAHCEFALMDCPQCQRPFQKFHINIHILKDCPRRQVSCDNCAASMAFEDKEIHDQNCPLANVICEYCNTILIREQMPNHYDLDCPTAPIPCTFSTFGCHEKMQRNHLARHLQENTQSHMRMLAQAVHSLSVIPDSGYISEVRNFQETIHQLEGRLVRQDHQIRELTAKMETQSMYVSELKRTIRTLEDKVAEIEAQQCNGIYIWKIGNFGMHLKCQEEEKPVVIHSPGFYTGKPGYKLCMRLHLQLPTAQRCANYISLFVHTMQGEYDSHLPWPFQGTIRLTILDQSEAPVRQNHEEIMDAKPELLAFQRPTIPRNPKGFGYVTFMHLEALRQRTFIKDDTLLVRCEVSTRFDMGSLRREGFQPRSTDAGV"}}}
{"variants_of": "B1", "conditions": "with traf6_human TRAF6, Q9Y4K3"}
{"variant": "Y460A", "effect of a mutation on the interaction": "disrupting interaction strength"}
{"variant": "Y460E", "effect of a mutation on the interaction": "decreasing interaction strength"}
{"variant": "P455D", "effect of a mutation on the interaction": "disrupting interaction strength"}
{"variant": "E457A", "effect of a mutation on the interaction": "disrupting interaction strength"}
